Positions count from the first letter of the chain named. Names may count otherwise.
B1: E361G arrestin-1 variant (bovine) (other)
chain: MHHHHHHKANKPAPNHVIFKKISRDKSVTIYLGKRDYIDHVERVEPVDGVVLVDPELVKGKRVYVSLTCAFRYGQEDIDVMGLSFRRDLYFSQVQVFPPVGASGATTRLQESLIKKLGANTYPFLLTFPDYLPCSVMLQPAPQDVGKSCGVDFEIKAFATHSTDVEEDKIPKKSSVRLLIRKVQHAPRDMGPQPRAEASWQFFMSDKPLRLAVSLSKEIYYHGEPIPVTVAVTNSTEKTVKKIKVLVEQVTNVVLYSSDYYIKTVAAEEAQEKVPPNSSLTKTLTLVPLLANNRERRGIALDGKIKHEDTNLASSTIIKEGIDKTVMGILVSYQIKVKLTVSGLLGELTSSEVATEVPFRLMHPQPGDPDTAKESFQDENFVFEEFARQNLKDAGEYKEEKTDQEAAMDE
B2: E361A arrestin-1 variant (bovine) (other)
chain: B1 chain with G367A
B3: D362A arrestin-1 variant (bovine) (other)
chain: B1 chain with G367E, D368A
B4: E361A/D362G arrestin-1 variant (bovine) (other)
chain: B1 chain with G367A, D368G
B5: E361G/D362A arrestin-1 variant (bovine) (other)
chain: B1 chain with D368A
B6: E361A/D362A arrestin-1 variant (bovine) (other)
chain: B1 chain with G367A, D368A
B7: D362G arrestin-1 variant (bovine) (other)
chain: B1 chain with G367E, D368G
B8: E361G/D362G arrestin-1 variant (bovine, His(6)-tagged) (other)
chain: B1 chain with D368G
B9: S210C arrestin-1 (bovine, His(6), C63A/C143A) labeled with monobromobimane (other)
chain: B1 chain with C69A, C149A, S216C, G367E
modifications: monobromobimane (mBBr) on Cys 210
notes: Cysteine-substitution mutant, made in Pichia pastoris
B10: E302C arrestin-1 (bovine, His(6), C63A/C143A) labeled with monobromobimane (other)
chain: B1 chain with C69A, C149A, E308C, G367E
modifications: monobromobimane (mBBr) on Cys 302
notes: as for B9
B11: K267C arrestin-1 (bovine, His(6), C63A/C143A) labeled with monobromobimane (other)
chain: B1 chain with C69A, C149A, K273C, G367E
modifications: monobromobimane (mBBr) on Cys 267
notes: as for B9
B12: D183C arrestin-1 (bovine, His(6), C63A/C143A) labeled with monobromobimane (other)
chain: B1 chain with C69A, C149A, D189C, G367E
modifications: monobromobimane (mBBr) on Cys 183
notes: as for B9
B13: K166C arrestin-1 (bovine, His(6), C63A/C143A) labeled with monobromobimane (other)
chain: B1 chain with C69A, C149A, K172C, G367E
modifications: monobromobimane (mBBr) on Cys 166
notes: as for B9
B14: V94C arrestin-1 (bovine, His(6), C63A/C143A) labeled with monobromobimane (other)
chain: B1 chain with C69A, V100C, C149A, G367E
modifications: monobromobimane (mBBr) on Cys 94
notes: as for B9
B15: R189C arrestin-1 (bovine, His(6), C63A/C143A) labeled with monobromobimane (other)
chain: B1 chain with C69A, C149A, R195C, G367E
modifications: monobromobimane (mBBr) on Cys 189
notes: as for B9
B16: E50C arrestin-1 (bovine, His(6), C63A/C143A) labeled with monobromobimane (other)
chain: B1 chain with E56C, C69A, C149A, G367E
modifications: monobromobimane (mBBr) on Cys 50
notes: as for B9
B17: V281C arrestin-1 (bovine, His(6), C63A/C143A) labeled with monobromobimane (other)
chain: B1 chain with C69A, C149A, V287C, G367E
modifications: monobromobimane (mBBr) on Cys 281
notes: as for B9
B18: E218C arrestin-1 (bovine, His(6), C63A/C143A) labeled with monobromobimane (other)
chain: B1 chain with C69A, C149A, E224C, G367E
modifications: monobromobimane (mBBr) on Cys 218
notes: as for B9
B19: R37C arrestin-1 (bovine, His(6), C63A/C143A) labeled with monobromobimane (other)
chain: B1 chain with R43C, C69A, C149A, G367E
modifications: monobromobimane (mBBr) on Cys 37
notes: as for B9
B20: A113C arrestin-1 (bovine, His(6), C63A/C143A) labeled with monobromobimane (other)
chain: B1 chain with C69A, A119C, C149A, G367E
modifications: monobromobimane (mBBr) on Cys 113
notes: as for B9
B21: K28C arrestin-1 (bovine, His(6), C63A/C143A) labeled with monobromobimane (other)
chain: B1 chain with K34C, C69A, C149A, G367E
modifications: monobromobimane (mBBr) on Cys 28
notes: as for B9
B22: K53C arrestin-1 (bovine, His(6), C63A/C143A) labeled with monobromobimane (other)
chain: B1 chain with K59C, C69A, C149A, G367E
modifications: monobromobimane (mBBr) on Cys 53
notes: as for B9
B23: D362C arrestin-1 (bovine, His(6), C63A/C143A) labeled with monobromobimane (other)
chain: B1 chain with C69A, C149A, G367E, D368C
modifications: monobromobimane (mBBr) on Cys 362
notes: as for B9

Key:
[1] = biological target: T1, bovine enolase-1 (bovine, UniProt Q9XSJ4 1-434, AlexaFluor-546 maleimide on reactive cysteines (pulldown assay only; unlabeled in the quench and activity assays)); assay: KI quench protection of mBBr-labeled arrestin-1; 0.25 µM arrestin-1, 5 µM (20-fold) enolase-1
T1 sequence (Q9XSJ4 whole entry): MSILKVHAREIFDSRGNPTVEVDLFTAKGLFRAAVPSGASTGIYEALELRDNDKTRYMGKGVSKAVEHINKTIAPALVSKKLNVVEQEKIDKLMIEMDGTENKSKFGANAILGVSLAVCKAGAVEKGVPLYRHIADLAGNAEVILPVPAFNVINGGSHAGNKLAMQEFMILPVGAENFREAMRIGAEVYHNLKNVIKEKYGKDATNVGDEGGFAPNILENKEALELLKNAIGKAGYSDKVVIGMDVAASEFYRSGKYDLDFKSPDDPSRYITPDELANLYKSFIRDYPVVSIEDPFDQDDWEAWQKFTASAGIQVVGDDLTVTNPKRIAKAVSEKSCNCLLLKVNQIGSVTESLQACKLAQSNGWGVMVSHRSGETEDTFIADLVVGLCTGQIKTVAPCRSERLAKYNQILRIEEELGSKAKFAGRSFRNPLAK
Protocol: C. Quenching assay. Cysteine mutants of arrestin-1 were labeled with monobromobimane (mBBr, ThermoFisher), reacting the arrestin-1 protein with 100-fold molar excess of the fluorescent label for two hours at room temperature. The unreacted label was removed by dialyzing against three sequential changes of 500-volumes of LAP200 buffer. […] Fluorescence quenching of the mBBr fluorophore was performed using 0.25 μM mBBr-labeled arrestin-1 with 100 mM potassium iodide in the presence or absence of 5 μM bovine enolase-1 that had been heterologously expressed and purified as previously described for arrestin-1, monitoring fluorescence emission at 470 nm. To determine the degree to which enolase-1 shielded a residue from quenching by potassium iodide, a protection factor was calculated as follows: […]
C. Mapping interaction of arrestin-1 with enolase-1. […] The fluorescence emission of the mBBr-labeled arrestin-1 with and without potassium iodide was measured to determine the range of quenching by KI. The fluorescence emission quench by KI with and without enolase-1 was then measured. A quench protection factor was calculated as described in the experimental procedures (Table 2). […] When mapped onto the surface of the arrestin-1 structure, these residues largely mapped to a single surface along the “bottom” of the arrestin protein (FIG. 2B).

[2] = biological target: T1, bovine enolase-1; assay: cell-based or functional assay

F(A+E+K) (fluorescence with enolase-1 and KI) [1]	Pf (quench protection factor) [1]	% inhibition of enolase-1 catalytic activity [2]	Molecule
636	-0.001	–	S199C arrestin-1 (bovine, His(6), C63A/C143A) labeled with monobromobimane (from UniProt P08168 2-404)
14000	0.012	–	W194C arrestin-1 (bovine, His(6), C63A/C143A) labeled with monobromobimane (from UniProt P08168 2-404)
963	-0.005	–	R18C arrestin-1 (bovine, His(6), C63A/C143A) labeled with monobromobimane (from UniProt P08168 2-404)
778	-0.001	–	V139C arrestin-1 (bovine, His(6), C63A/C143A) labeled with monobromobimane (from UniProt P08168 2-404)
630	0.002	–	I72C arrestin-1 (bovine, His(6), C63A/C143A) labeled with monobromobimane (from UniProt P08168 2-404)
695	0.002	–	S231C arrestin-1 (bovine, His(6), C63A/C143A) labeled with monobromobimane (from UniProt P08168 2-404)
600	-0.011	–	Y25C arrestin-1 (bovine, His(6), C63A/C143A) labeled with monobromobimane (from UniProt P08168 2-404)
6160	0.073	–	S86C arrestin-1 (bovine, His(6), C63A/C143A) labeled with monobromobimane (from UniProt P08168 2-404)
11500	0.002	–	D317C arrestin-1 (bovine, His(6), C63A/C143A) labeled with monobromobimane (from UniProt P08168 2-404)
14000	0.012	–	Y125C arrestin-1 (bovine, His(6), C63A/C143A) labeled with monobromobimane (from UniProt P08168 2-404)
953	0.134	–	E393C arrestin-1 (bovine, His(6), C63A/C143A) labeled with monobromobimane (from UniProt P08168 2-404)
730	0.011	–	S251C arrestin-1 (bovine, His(6), C63A/C143A) labeled with monobromobimane (from UniProt P08168 2-404)
–	–	18.3%	B1
–	–	21.1%	B2
–	–	22.2%	B3
–	–	1.3%	B4
–	–	8.3%	B5
–	–	9%	B6

F(A+E+K) (fluorescence with enolase-1 and KI) [1]	Pf (quench protection factor) [1]	% inhibition of enolase-1 catalytic activity [2]	Molecule
–	–	20.7%	B7
–	–	0.7%	B8
8720	0.618	–	B9
3680	0.772	–	B10
2850	0.484	–	B11
19200	0.787	–	B12
1040	0.026	–	B13
1900	0.062	–	B14
11100	0.467	–	B15
8140	0.297	–	B16
2440	0.269	–	B17
9500	1.08	–	B18
16600	0.564	–	B19
3460	0.109	–	B20
17200	0.732	–	B21
11000	0.314	–	B22
5490	1.2	–	B23

Source: patent publication US20230174598A1 (UNIVERSITY OF FLORIDA RESEARCH FOUNDATION, published 2023)
